The text below walks through data of patent US20240317894A1 (BOARD OF REGENTS OF THE UNIVERSITY OF OKLAHOMA, published 2024).

A value given as a limit tells only on which side of the number the result lay.

This assay addresses T1, Fms-related tyrosine kinase 3 (FLT3) on FLT3-expressing target cells (human, UniProt P36888 27-993).
T1 sequence (looked up): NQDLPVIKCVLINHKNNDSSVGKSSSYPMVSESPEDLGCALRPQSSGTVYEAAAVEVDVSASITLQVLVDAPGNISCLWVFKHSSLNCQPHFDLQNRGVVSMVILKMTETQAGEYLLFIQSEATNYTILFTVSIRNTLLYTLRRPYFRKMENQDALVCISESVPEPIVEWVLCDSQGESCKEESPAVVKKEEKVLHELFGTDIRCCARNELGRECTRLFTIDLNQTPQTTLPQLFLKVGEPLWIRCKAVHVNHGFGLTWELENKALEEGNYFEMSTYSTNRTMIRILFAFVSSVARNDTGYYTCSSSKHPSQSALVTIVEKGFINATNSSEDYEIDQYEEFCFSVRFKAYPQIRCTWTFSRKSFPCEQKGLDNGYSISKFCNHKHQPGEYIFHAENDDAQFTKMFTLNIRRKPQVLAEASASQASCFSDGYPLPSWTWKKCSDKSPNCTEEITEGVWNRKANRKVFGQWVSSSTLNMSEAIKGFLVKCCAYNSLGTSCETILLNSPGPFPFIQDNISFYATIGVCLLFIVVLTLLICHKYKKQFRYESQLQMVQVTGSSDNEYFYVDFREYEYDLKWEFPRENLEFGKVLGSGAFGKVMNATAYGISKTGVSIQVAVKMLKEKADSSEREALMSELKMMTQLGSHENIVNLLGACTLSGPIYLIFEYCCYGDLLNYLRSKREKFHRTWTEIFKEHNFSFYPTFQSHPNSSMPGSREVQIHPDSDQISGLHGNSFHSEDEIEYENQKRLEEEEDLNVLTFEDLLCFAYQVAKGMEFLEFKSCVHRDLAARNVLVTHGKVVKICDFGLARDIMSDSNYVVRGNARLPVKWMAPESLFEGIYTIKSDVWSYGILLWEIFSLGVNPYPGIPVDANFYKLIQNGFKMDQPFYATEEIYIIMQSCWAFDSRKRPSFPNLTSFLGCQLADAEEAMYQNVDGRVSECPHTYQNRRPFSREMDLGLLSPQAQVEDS
The assay is described as follows: cell-based or functional assay.

B1: FLCAR (chimeric antigen receptor with an FLT3-binding extracellular portion of human FLT3 ligand, CD28 transmembrane and costimulatory regions and a CD3-zeta … (other)
chain: TQDCSFQHSPISSDFAVKIRELSDYLLQDYPVTVASNLQDEELCGGLWRLVLAQRWMERLKTVAGSKMQGLLERVNTEIHFVTKCAFQPPPSCLRFVQTNISRLLQETSEQLVALKPWITRQNFSRCLELQCQGKHLCPSPLFPGPSKPFWVLVVVGGVLACYSLLVTVAFIIFWVRSKRSRLLHSDYMNMTPRRPGPTRKHYQPYAPPRDFAAYRSGSRSADAPAYQQGQNQLYNELNLGRREEYDVLDKRRGRDPEMGGKPRRKNPQEGLYNELQKDKMAEAYSEIGMKGERRRGKGHDGLYQGLSTATKDTYDALHMQALPPR
modifications: partially phosphorylated on tyrosine
Take B1: the “IL-2 expression (quantitative RT-PCR)” value is greater than 5 fold.
